Experimental data: patent US11162087B2, “Beta-glucosidase, enzyme composition including same, and method for manufacturing sugar solution using same” (RIKEN, priority 2017, dated 2021)

Assays:
[1] = Inhibitory action of glucose on the β-glucosidase activity; type: biochemical; conditions: 1 mM pNP-Glc, 30° C., 100 minutes
Text: The β-glucosidase derived from a protist of the genus Pseudotrichonympha of the present invention is preferably less likely to suffer from inhibition by glucose on the 3-glucosidase activity. Specifically, when the β-glucosidase activity in the absence of glucose is taken unity, the β-glucosidase activity under a condition of a glucose concentration of 8 g/L (or in the presence of 8 g/L glucose) is preferably 0.5 or more, more preferably 0.6 or more, more preferably 0.7 or more, more preferably 0.8 or more, more preferably 0.9 or more, more preferably 1.0 or more, more preferably 1.1 or more, more preferably 1.2 or more, more preferably 1.3 or more, and in particular preferably 1.4 or more. Further, in addition to the β-glucosidase activity under the condition of the glucose concentration of 8 g/L, when the β-glucosidase activity in the absence of glucose is taken as unity, the β-glucosidase activity under a condition of a glucose concentration of 20 g/L (or in the presence of 20 g/L glucose) is preferably 0.5 or more, more preferably 0.6 or more, and in particular preferably 0.7 or more. The method used herein for measuring the β-glucosidase activity is the same as the above-described method except that 8 g/L or 20 g/L of glucose is added at the time of measuring; and results obtained thereby are used.
An enzyme solution was added to a mixture solution containing 1 mM p-nitrophenyl-β-glucopyranoside (manufactured by Sigma-Aldrich Japan), 50 mM acetic acid buffer and 0, 4, 8 or 20 g/L glucose such that the total amount of the reaction solution became 100 μL, causing a reaction at 30° C. for 100 minutes. Thereafter, 10 μL of 2M sodium carbonate was added and well mixed to stop the reaction, and an increase of absorbance at 405 nm was measured. The activity to release 1 μmol of p-nitrophenol per minute was defined as 1 U. For a blank, 10 μL of 2M sodium carbonate was added to an amount, equivalent to that of the above mixture solution for the reaction solution before addition of the enzyme solution, of a mixture solution containing 1 mM p-nitrophenyl-β-glucopyranoside, 50 mM sodium acetate buffer and 0, 4, 8 or 20 g/L glucose, and mixed well; and then, the enzyme solution was added such that the total solution amount of the blank became 110 μL, causing a reaction at 30° C. for 30 minutes. Thereafter, an increase of absorbance at 405 nm was measured.
In accordance with Reference Example 8, the inhibitory action of glucose on the β-glucosidase activity was measured in enzyme compositions: containing the β-glucosidase and the genus Trichoderma filamentous fungus-derived cellulase prepared in Example 10; and the cell-free extract of β-glucosidase mutant gene transformed E. coli prepared in Example 5. For a comparative control, only the genus Trichoderma filamentous fungus-derived cellulase was used, and the inhibitory action of glucose on the β-glucosidase activity was measured in the same manner. […] That is, both of the enzyme composition containing the β-glucosidase of the present invention and the genus Trichoderma filamentous fungus-derived cellulase, and the cell-free extract of β-glucosidase mutant gene transformed E. coli were less likely to suffer from inhibition on the β-glucosidase activity by glucose, compared to only the genus Trichoderma filamentous fungus-derived cellulase, and the enzyme composition of Comparative Example 1 containing the genus Aspergillus filamentous fungus-derived β-glucosidase and the genus Trichoderma filamentous fungus-derived cellulase.

[2] = β-glucosidase activity measurement with pNP-Glc; type: biochemical; conditions: cell-free extract, volume reduced to one-twelfth by ultrafilter membrane; detection limit 0.075
Experimental: In the present invention, “β-glucosidase” means an enzyme that catalyzes a reaction for hydrolysis degradation of a sugar β-glucoside bond. In the present invention, a method for measuring a β-glucosidase activity utilizes a reaction using p-nitrophenyl-β-D-glucopyranoside (pNP-Glc) as a substrate. Specifically, an enzyme liquid is added to a substrate solution prepared by dissolving pNP-Glc in 50 mM acetic acid-sodium acetate buffer solution (pH 5.0) and reacted at 30° C. for 10 minutes; and the reaction is stopped by well mixing with 2M sodium carbonate in an amount equivalent to one-tenth of a reaction system volume to measure an increase of the absorbance at 405 nm. When p-nitrophenol is released and the absorbance at 405 nm is increased after the above reaction, it is determined that the β-glucosidase activity is present.
10 μL of an enzyme diluted solution was added to and reacted with 90 μL of 50 mM acetic acid buffer containing 1 mM p-nitrophenyl-β-glucopyranoside (manufactured by Sigma-Aldrich Japan) at 30° C. for 10 minutes. Thereafter, 10 μL of 2M sodium carbonate was added and well mixed to stop the reaction, and an increase of absorbance at 405 nm was measured. The activity to release 1 μmol of p-nitrophenol per minute was defined as 1 U. For a blank, 10 μL of 2M sodium carbonate was added to and well mixed with 90 μL of 50 mM sodium acetate buffer containing 1 mM p-nitrophenyl-β-glucopyranoside, and thereafter, 10 μL of an enzyme diluted solution was added to cause a reaction at 30° C. for 30 minutes. Thereafter, an increase of absorbance at 405 nm was measured. At this time, the enzyme liquid was diluted so as not to exceed an absorbance at 405 nm of 1. In addition, a calibration curve was created based on absorbances measured by preparing p-nitrophenol solutions at concentrations of 0.1 mM, 0.2 mM, 1 mM and 2 mM; using 10 μL of them instead of an enzyme diluted solution; and adding and well mixing 10 μL of 2M sodium carbonate for color development.

B1: Mutant 2: His-tagged polypeptide of SEQ ID NO: 8, 80% identity with SEQ ID NO: 1; tested as cell-free extract of transformed E. coli (protein)
chain: QIEGLINVMTLEEKVGQMAQLAIDLFIDVPTDTVIPEAARKGIIDYKIGSILNTYGGVSHSKEVWTYINAEFYKYTEETDLKIPILYGLDSIHGANFVNNFTSFPQQIGMAATFNPSLLKEGSRISAYETRAASVGWVFSPVMDLGLDPRWPRIWEGFGEDPYLSSQFGIASVHGFQGKDPNLIDEFHVAACAKHYLAYSNPFTGKDRTPAILSDIFIREYHLPSFKAAVDAGVASVMVNSGLINGIPTHMNHYLLTTVLKEELGFQGVIVTDWQDIENIHTRDHLAPTQKDAVKLAINAGIDMSMIPYNYDFIDYLIELVHEGEVSIDRINDAVRRILKMKAKMNLWDLPVTKSEDYPEFGSEAHANASYTAASESITLLKNENSTLPLAKNTKVLVVGPNSNSHRSLNGGWSYSWQGNAGVQYAVQYNTIYQAIQKVNGEENTVFSQGVRYIETGNYYEDEEVNISESVALARDVDYIILALGENTYTEKPGDLSDLEISQNQIDLAKALASTGKPIILVLNQGRPRIISRIEQLVSAILWIYWPGNYGGDALADILFGDVNPSGKLPVTYPRYSASL
modifications: His tag; amino acid sequence having 80% sequence identity with amino acid sequence of SEQ ID NO 1
notes: tested as cell-free extract of transformed E. coli
[1]; 8 g/L glucose
  BGL activity (relative value) in the presence of 8 g/L glucose when BGL activity in the absence of glucose is taken as unity: 0.74
[1]; 20 g/L glucose
  BGL activity (relative value) in the presence of 20 g/L glucose when BGL activity in the absence of glucose is taken as unity: 0.72
[2]
  Increase of absorbance (405 nm): 0.365
